Data on three molecules can be found in article PMC12022045 (Nature Communications, 2025).

The target of experiment [1] is T1, MED15-ABD3 (human, UniProt Q96RN5-2 453-561).
T1 sequence (looked up): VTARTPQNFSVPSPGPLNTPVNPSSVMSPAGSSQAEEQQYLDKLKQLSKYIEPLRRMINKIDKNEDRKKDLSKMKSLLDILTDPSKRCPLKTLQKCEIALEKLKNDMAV
Put plainly: SPR. (In general: Surface plasmon resonance follows binding to a sensor surface in real time, without labels.)

For experiment [2], the target named is T1, MED15-ABD3. Put plainly: NMR titration.
In another experiment the target is T2, TAFH (human, UniProt O00268 582-678).
T2 sequence (looked up): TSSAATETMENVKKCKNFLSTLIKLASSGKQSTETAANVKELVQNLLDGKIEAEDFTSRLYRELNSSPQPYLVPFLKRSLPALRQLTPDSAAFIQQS
Put plainly: NMR titration.

B1: YAP-TAD (domain or fragment, human, UniProt P46937 450-504, looked up)
chain: GTNVDLGTLEGDGMNIEGEELMPSLQEALSSDILNDMESVLAATKLDKESFLTWL
What is called Kd is the equilibrium constant for the complex coming apart. A lower Kd goes with a tighter complex. With B1, binding in the experiment with MED15-ABD3 [1] was put at a Kd of 160 ± 54.3 nM.

B2: FLTWL pentapeptide (peptide)
peptide: FLTWL
On to B2, for which the binding result in the experiment with MED15-ABD3 [2] and with TAFH was “binds” throughout.

B3: α-helix-based peptide SDILNDMESVLAATK (peptide)
peptide: SDILNDMESVLAATK
B3: the binding result in the experiment with TAFH is on record as “binds”.
